In PMC5711526:

Target: human alpha-thrombin (Homo sapiens, UniProt P00734;P00734 328-363;364-622)
Assay: native ESI-MS

Binder: GGTTGGTGTGGTTGG (structured_DNA) [TBA (Bock thrombin binding aptamer, 15-mer)]
- binding result: binds
